The text below walks through data of article PMC2190570.

“And” between values parts separate entries of the source, which are not always exact repeats. Identical values can stand only once.

What is called stoichiometry N is the number of molecules, sites or subunits per partner or assembly.

The target in assay [1] is lamin B1Δrod mutant (human) (UniProt P20700). The assay can be described thus: binding to an immobilised lamin matrix with urea step elution.
The target of assay [2] is wild-type lamin B1 (human) (UniProt P20700). Described as above.
Assay [3] has as its target lamin B1Δrod mutant (human) (UniProt P20700). The experiment in a line: cross-linking.
For assay [4], the target named is T1, wild-type lamin B1 (human), P20700.
T1 chain: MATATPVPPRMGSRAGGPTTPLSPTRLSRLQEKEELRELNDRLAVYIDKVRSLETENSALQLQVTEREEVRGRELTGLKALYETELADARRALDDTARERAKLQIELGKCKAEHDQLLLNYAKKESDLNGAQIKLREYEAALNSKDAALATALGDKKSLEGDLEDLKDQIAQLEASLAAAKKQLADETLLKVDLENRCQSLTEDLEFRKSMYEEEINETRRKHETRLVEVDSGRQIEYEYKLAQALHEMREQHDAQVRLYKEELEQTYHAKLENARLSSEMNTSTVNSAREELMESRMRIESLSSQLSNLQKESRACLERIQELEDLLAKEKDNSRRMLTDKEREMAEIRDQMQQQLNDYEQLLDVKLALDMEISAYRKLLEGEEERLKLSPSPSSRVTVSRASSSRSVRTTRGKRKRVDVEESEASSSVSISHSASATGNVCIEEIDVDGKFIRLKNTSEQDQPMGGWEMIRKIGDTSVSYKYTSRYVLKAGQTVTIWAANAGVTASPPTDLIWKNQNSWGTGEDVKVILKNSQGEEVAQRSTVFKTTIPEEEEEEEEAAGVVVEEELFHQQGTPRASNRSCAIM
The assay can be described thus: binding to an immobilised lamin matrix with urea step elution. The settings on record: remark: other sources report otherwise.

Assay [5] shares this target. The experiment in a line: cross-linking. To be noted: remark: other sources report otherwise.

Take “wild-type lamin B1 (from UniProt P20700 1-586) (natural protein)”: in assay [1], the urea concentration at which most protein eluted is 4 M and 7 M.
In the case of “lamin A (from UniProt P02545 1-646) (natural protein)”, the urea concentration at which the majority eluted was 2 M and 4 M in assay [1]; 7 M in assay [2].
Turning to “lamin C (from UniProt P02545-2 1-572) (natural protein)”, in assay [1], the urea concentration at which elution began was 0.5 M and the urea concentration at which the majority eluted is 2 to 3 M. In assay [2], this molecule displayed a urea concentration at which elution began of 3 M and a urea concentration at which the majority eluted of 5 to 7 M.
“lamin B1Δrod mutant (from UniProt P20700 1-69; P20700 340-586) (natural protein)” came in with a stoichiometry N in assay [3] of 2.

B1: wild-type lamin B1, P20700 1-586 (natural protein)
chain: T1 chain
On to B1, for which the urea concentration at which most protein eluted in assay [4] is 7 M and 4 M. This molecule registered a stoichiometry N in assay [5] of 2.
